Source: the supplement of paper PMC9112550, “Optimization of the antimicrobial peptide Bac7 by deep mutational scanning” (BMC Biology, 2022)
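Also: peptides expressed intracellularly from a pBAD plasmid library in pooled LB shake-flask culture, induced with 0.3% L-arabinose, DNA abundance read by NGS, three biological replicates, DESeq2 with apeglm shrinkage.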

What follows are sequences tested on Escherichia coli TOP10 (assay: shrunken log2 fold change of peptide-encoding DNA abundance (4.5 h post-induction vs induction); higher = less antimicrobial activity (less host growth inhibition)). Conditions: time post-induction: 4.5 h; library: site-saturation at positions 5, 18, 19, 20.
RRIRRRPPRLPRPRPRPTDDPRP was tested, and the “shrunken log2 fold change” value was 0.741. RRIRRRPPRLPRPRPRPTFAPRP was tested, and the “shrunken log2 fold change” value was 0.765. RRIRRRPPRLPRPRPRPTHIPRP was tested, and the “shrunken log2 fold change” value was 0.274. RRIRRRPPRLPRPRPRPTHQPRP was tested, and the “shrunken log2 fold change” value was 0.414. In the case of RRIRRRPPRLPRPRPRPTIHPRP, the “shrunken log2 fold change” value is reported as -0.0346. RRIRRRPPRLPRPRPRPTISPRP was tested, and the “shrunken log2 fold change” value was -0.28. For RRIRRRPPRLPRPRPRPTKCPRP, the “shrunken log2 fold change” value was 0.114. With RRIRRRPPRLPRPRPRPTKIPRP the “shrunken log2 fold change” value was 0.0521. For RRIRRRPPRLPRPRPRPTKRPRP, the “shrunken log2 fold change” value was 0.145. In the case of RRIRRRPPRLPRPRPRPTLVPRP, the “shrunken log2 fold change” value is reported as 0.315. With RRIRRRPPRLPRPRPRPTMDPRP the “shrunken log2 fold change” value was 0.147. For RRIRRRPPRLPRPRPRPTMPPRP, the “shrunken log2 fold change” value was 0.438. RRIRRRPPRLPRPRPRPTNNPRP was tested, and the “shrunken log2 fold change” value was -0.0392. With RRIRRRPPRLPRPRPRPTPWPRP the “shrunken log2 fold change” value was 0.841. For RRIRRRPPRLPRPRPRPTSGPRP, the “shrunken log2 fold change” value was 0.252. In the case of RRIRRRPPRLPRPRPRPTTCPRP, the “shrunken log2 fold change” value is reported as 0.379. RRIRRRPPRLPRPRPRPTTNPRP was tested, and the “shrunken log2 fold change” value was 0.338. RRIRRRPPRLPRPRPRPTTSPRP was tested, and the “shrunken log2 fold change” value was 0.591. With RRIRRRPPRLPRPRPRPTTWPRP the “shrunken log2 fold change” value was 0.28. In the case of RRIRRRPPRLPRPRPRPTVCPRP, the “shrunken log2 fold change” value is reported as 0.227. With RRIRRRPPRLPRPRPRPTWNPRP the “shrunken log2 fold change” value was 0.951. For RRIRRRPPRLPRPRPRPVAHPRP, the “shrunken log2 fold change” value was 0.605. In the case of RRIRRRPPRLPRPRPRPVAKPRP, the “shrunken log2 fold change” value is reported as 0.386. RRIRRRPPRLPRPRPRPVAWPRP was tested, and the “shrunken log2 fold change” value was 0.341. In the case of RRIRRRPPRLPRPRPRPVDVPRP, the “shrunken log2 fold change” value is reported as 1.09. In the case of RRIRRRPPRLPRPRPRPVECPRP, the “shrunken log2 fold change” value is reported as -0.0238. In the case of RRIRRRPPRLPRPRPRPVFEPRP, the “shrunken log2 fold change” value is reported as 0.192. For RRIRRRPPRLPRPRPRPVGTPRP, the “shrunken log2 fold change” value was 0.018. RRIRRRPPRLPRPRPRPVIQPRP was tested, and the “shrunken log2 fold change” value was 0.177. RRIRRRPPRLPRPRPRPVKEPRP was tested, and the “shrunken log2 fold change” value was -0.128. With RRIRRRPPRLPRPRPRPVKYPRP the “shrunken log2 fold change” value was -0.167. RRIRRRPPRLPRPRPRPVMNPRP was tested, and the “shrunken log2 fold change” value was 0.0331. For RRIRRRPPRLPRPRPRPVNIPRP, the “shrunken log2 fold change” value was -0.142. RRIRRRPPRLPRPRPRPVPCPRP was tested, and the “shrunken log2 fold change” value was 0.0337. With RRIRRRPPRLPRPRPRPVPFPRP the “shrunken log2 fold change” value was 0.0998. In the case of RRIRRRPPRLPRPRPRPVPRPRP, the “shrunken log2 fold change” value is reported as 0.518. In the case of RRIRRRPPRLPRPRPRPVQHPRP, the “shrunken log2 fold change” value is reported as -0.0478. For RRIRRRPPRLPRPRPRPVVIPRP, the “shrunken log2 fold change” value was 0.0625. For RRIRRRPPRLPRPRPRPVVPPRP, the “shrunken log2 fold change” value was 0.47. In the case of RRIRRRPPRLPRPRPRPVVRPRP, the “shrunken log2 fold change” value is reported as 0.274. RRIRRRPPRLPRPRPRPVVTPRP was tested, and the “shrunken log2 fold change” value was 0.911. In the case of RRIRRRPPRLPRPRPRPVWQPRP, the “shrunken log2 fold change” value is reported as 0.395. RRIRRRPPRLPRPRPRPVYCPRP was tested, and the “shrunken log2 fold change” value was -0.0322. With RRIRRRPPRLPRPRPRPWAGPRP the “shrunken log2 fold change” value was 0.0855. In the case of RRIRRRPPRLPRPRPRPWAYPRP, the “shrunken log2 fold change” value is reported as -0.0717. RRIRRRPPRLPRPRPRPWCDPRP was tested, and the “shrunken log2 fold change” value was 0.0743. In the case of RRIRRRPPRLPRPRPRPWDSPRP, the “shrunken log2 fold change” value is reported as 0.0548. For RRIRRRPPRLPRPRPRPWDYPRP, the “shrunken log2 fold change” value was 0.0184. RRIRRRPPRLPRPRPRPWGMPRP was tested, and the “shrunken log2 fold change” value was 0.137. For RRIRRRPPRLPRPRPRPWHEPRP, the “shrunken log2 fold change” value was 0.041. In the case of RRIRRRPPRLPRPRPRPWHSPRP, the “shrunken log2 fold change” value is reported as -0.254. RRIRRRPPRLPRPRPRPWIKPRP was tested, and the “shrunken log2 fold change” value was 0.0892. With RRIRRRPPRLPRPRPRPWKNPRP the “shrunken log2 fold change” value was 0.206. In the case of RRIRRRPPRLPRPRPRPWKVPRP, the “shrunken log2 fold change” value is reported as 0.00548. With RRIRRRPPRLPRPRPRPWKYPRP the “shrunken log2 fold change” value was -0.478. RRIRRRPPRLPRPRPRPWLKPRP was tested, and the “shrunken log2 fold change” value was 0.127. RRIRRRPPRLPRPRPRPWMFPRP was tested, and the “shrunken log2 fold change” value was 0.0935. In the case of RRIRRRPPRLPRPRPRPWMIPRP, the “shrunken log2 fold change” value is reported as -0.26. For RRIRRRPPRLPRPRPRPWMKPRP, the “shrunken log2 fold change” value was -0.196. RRIRRRPPRLPRPRPRPWMPPRP was tested, and the “shrunken log2 fold change” value was -0.217. In the case of RRIRRRPPRLPRPRPRPWMTPRP, the “shrunken log2 fold change” value is reported as 0.0417. RRIRRRPPRLPRPRPRPWNAPRP was tested, and the “shrunken log2 fold change” value was -0.0963. In the case of RRIRRRPPRLPRPRPRPWNSPRP, the “shrunken log2 fold change” value is reported as 0.0625. With RRIRRRPPRLPRPRPRPWPPPRP the “shrunken log2 fold change” value was 0.514. RRIRRRPPRLPRPRPRPWPWPRP was tested, and the “shrunken log2 fold change” value was 0.0938. For RRIRRRPPRLPRPRPRPWQMPRP, the “shrunken log2 fold change” value was 0.0303. In the case of RRIRRRPPRLPRPRPRPWRDPRP, the “shrunken log2 fold change” value is reported as -0.0485. For RRIRRRPPRLPRPRPRPWREPRP, the “shrunken log2 fold change” value was -0.0799. In the case of RRIRRRPPRLPRPRPRPWRLPRP, the “shrunken log2 fold change” value is reported as 0.289. For RRIRRRPPRLPRPRPRPWRMPRP, the “shrunken log2 fold change” value was 0.00176. In the case of RRIRRRPPRLPRPRPRPWSDPRP, the “shrunken log2 fold change” value is reported as -0.107. For RRIRRRPPRLPRPRPRPWTVPRP, the “shrunken log2 fold change” value was -0.00497. In the case of RRIRRRPPRLPRPRPRPWVKPRP, the “shrunken log2 fold change” value is reported as 0.0557. RRIRRRPPRLPRPRPRPWVTPRP was tested, and the “shrunken log2 fold change” value was -0.0822. RRIRRRPPRLPRPRPRPWYVPRP was tested, and the “shrunken log2 fold change” value was 0.0457. In the case of RRIRRRPPRLPRPRPRPYAHPRP, the “shrunken log2 fold change” value is reported as 0.082. RRIRRRPPRLPRPRPRPYATPRP was tested, and the “shrunken log2 fold change” value was 0.418. RRIRRRPPRLPRPRPRPYCCPRP was tested, and the “shrunken log2 fold change” value was -0.565. In the case of RRIRRRPPRLPRPRPRPYCGPRP, the “shrunken log2 fold change” value is reported as -0.379. RRIRRRPPRLPRPRPRPYCTPRP was tested, and the “shrunken log2 fold change” value was -0.24. With RRIRRRPPRLPRPRPRPYFCPRP the “shrunken log2 fold change” value was -0.285. For RRIRRRPPRLPRPRPRPYGKPRP, the “shrunken log2 fold change” value was -0.813. RRIRRRPPRLPRPRPRPYGQPRP was tested, and the “shrunken log2 fold change” value was 0.501. For RRIRRRPPRLPRPRPRPYHAPRP, the “shrunken log2 fold change” value was -0.0669. For RRIRRRPPRLPRPRPRPYHDPRP, the “shrunken log2 fold change” value was -0.266. RRIRRRPPRLPRPRPRPYHMPRP was tested, and the “shrunken log2 fold change” value was -0.254. For RRIRRRPPRLPRPRPRPYHSPRP, the “shrunken log2 fold change” value was -0.017. For RRIRRRPPRLPRPRPRPYIRPRP, the “shrunken log2 fold change” value was -0.715. RRIRRRPPRLPRPRPRPYKCPRP was tested, and the “shrunken log2 fold change” value was -0.639. For RRIRRRPPRLPRPRPRPYKYPRP, the “shrunken log2 fold change” value was -0.415. For RRIRRRPPRLPRPRPRPYLFPRP, the “shrunken log2 fold change” value was -0.305. In the case of RRIRRRPPRLPRPRPRPYMAPRP, the “shrunken log2 fold change” value is reported as -0.69. For RRIRRRPPRLPRPRPRPYMCPRP, the “shrunken log2 fold change” value was 0.154. RRIRRRPPRLPRPRPRPYPLPRP was tested, and the “shrunken log2 fold change” value was 0.015. For RRIRRRPPRLPRPRPRPYPYPRP, the “shrunken log2 fold change” value was -0.0951. With RRIRRRPPRLPRPRPRPYQVPRP the “shrunken log2 fold change” value was -0.0648. For RRIRRRPPRLPRPRPRPYSNPRP, the “shrunken log2 fold change” value was -0.414. With RRIRRRPPRLPRPRPRPYTYPRP the “shrunken log2 fold change” value was 0.0668. In the case of RRIRRRPPRLPRPRPRPYVLPRP, the “shrunken log2 fold change” value is reported as 0.00941. With RRIRRRPPRLPRPRPRPYVRPRP the “shrunken log2 fold change” value was -0.867. For RRIRRRPPRLPRPRPRPYVWPRP, the “shrunken log2 fold change” value was -0.216. In the case of RRIRRRPPRLPRPRPRPYWNPRP, the “shrunken log2 fold change” value is reported as -0.368. For RRIRSRPPRLPRPRPRPAAFPRP, the “shrunken log2 fold change” value was 0.29. For RRIRSRPPRLPRPRPRPADEPRP, the “shrunken log2 fold change” value was 0.246. For RRIRSRPPRLPRPRPRPADSPRP, the “shrunken log2 fold change” value was -0.176. RRIRSRPPRLPRPRPRPADWPRP was tested, and the “shrunken log2 fold change” value was 0.405. For RRIRSRPPRLPRPRPRPAENPRP, the “shrunken log2 fold change” value was 0.151. With RRIRSRPPRLPRPRPRPAERPRP the “shrunken log2 fold change” value was 0.0522. For RRIRSRPPRLPRPRPRPAGFPRP, the “shrunken log2 fold change” value was 0.262.
